Source: IntAct's records for PubMed 17185412

Assays:
[1] = biological target: syt1_mouse Syt1 (UniProt P46096)
[2] = biological target: syt2_mouse Syt2 (UniProt P46097)

Substance	effect of a mutation on the interaction [1]	effect of a mutation on the interaction [2]
Botulinum neurotoxin type B (Clostridium botulinum) (from UniProt P10844) K1192E	decreasing interaction strength	
Botulinum neurotoxin type B (Clostridium botulinum) (from UniProt P10844) K1192M	decreasing interaction strength	
Botulinum neurotoxin type B (Clostridium botulinum) (from UniProt P10844) V1118D	decreasing interaction strength	decreasing interaction strength
Botulinum neurotoxin type B (Clostridium botulinum) (from UniProt P10844) W1262L	decreasing interaction strength	
Botulinum neurotoxin type B (Clostridium botulinum) (from UniProt P10844) Y1183R	decreasing interaction strength	decreasing interaction strength
